Results taken from publication PMC12926040, “ADP-ribose is a competitive inhibitor of methanol dehydrogenases from Bacillus methanolicus” (The Journal of Biological Chemistry, 2025).

How the values were obtained:
BmMDH2 = BmMDH2 (Bacillus methanolicus, UniProt I3E949); experiment: BmMDH2 activation by ACT, NADH formation monitored at 340 nm; type: biochemical; details: 100 nM BmMDH2, 3 mM NAD+, pH 9.5
Procedure: Figure 1 ACT-catalyzed conversion of NAD^+ into a compound that activates BmMDH2.A, effect of ACT concentration on BmMDH2 activation. The formation of NADH was monitored at 340 nm, with 100 nM BmMDH2 in glycine-NaOH buffer (pH 9.5) containing 0 to 125 nM ACT, 3 mM NAD^+, 20 mM ethanol, 5 mM MgCl2 and 0.5 mM MnCl2. Data for the initial 10 min are highlighted in the right panel. Data were from a single experiment. B, effects of the following treatments on BmMDH2 activation: preincubated ACT & NAD^+ (red), preincubated ACT & BmMDH2 (blue), ultrafiltrate of preincubated ACT & NAD^+ (green), and ultrafiltrate of ACT (purple) or NAD^+ (cyan) solutions. Preincubations were performed in glycine-NaOH buffer (pH 9.5) with 5 mM MgCl2 and 0.5 mM MnCl2 at 25 °C for 30 min. Ethanol, BmMDH2, or NAD^+ was subsequently added to achieve final concentrations of 10 nM ACT, 20 mM ethanol, 3 mM NAD^+, and 200 nM BmMDH2. For ultrafiltration, preincubated samples were filtered (10 kDa cutoff, Millipore), and the flowthrough was used for activation assays. Data represent means ± SD (n = 3). C, effect of NAD^+ concentration on BmMDH2 activation. Activity was measured using 100 nM BmMDH2 in glycine-NaOH buffer (pH 9.5) with 50 nM ACT, 0 to 20 mM NAD^+, 5 mM MgCl2, and 0.5 mM MnCl2. Data were from a single experiment. D, time-course of BmMDH2 activation. Reaction were performed in 200 μl glycine-NaOH buffer (100 mM, pH 9.5) with 5 mM MgCl2, 0.5 mM MnCl2, 0.25 mM NAD^+, 0.1 μM BmMDH2, 20 mM ethanol, and 50 nM ACT. Fresh NAD^+ (4 μl, 150 mM) was added twice during the reaction. Data were from a single experiment. E, catalytic rates of BmMDH2 were calculated from the slopes of the data in panel D. Additional replicates of the experiments shown in panels A, C, and D are provided in Fig. S4. […]
The catalytic processes of MDHs were monitored by measuring NADH absorbance at 340 nm using a Tecan SPARK UV-Vis plate reader (Tecan Austria GmbH) at 25 °C. […]

BmMDH1 = details: ref [14], [15]; cited from earlier work
[1] = Specific activity of ACT and its mutants for the hydrolysis of ADPR; type: biochemical
Procedure: After a 5-minute incubation at 25°C, the reaction was terminated by the addition of 10 μL of 3 M H₂SO₄. The products were subsequently analyzed by HPLC.

BmMDH2, sequence (I3E949 entry or part of it): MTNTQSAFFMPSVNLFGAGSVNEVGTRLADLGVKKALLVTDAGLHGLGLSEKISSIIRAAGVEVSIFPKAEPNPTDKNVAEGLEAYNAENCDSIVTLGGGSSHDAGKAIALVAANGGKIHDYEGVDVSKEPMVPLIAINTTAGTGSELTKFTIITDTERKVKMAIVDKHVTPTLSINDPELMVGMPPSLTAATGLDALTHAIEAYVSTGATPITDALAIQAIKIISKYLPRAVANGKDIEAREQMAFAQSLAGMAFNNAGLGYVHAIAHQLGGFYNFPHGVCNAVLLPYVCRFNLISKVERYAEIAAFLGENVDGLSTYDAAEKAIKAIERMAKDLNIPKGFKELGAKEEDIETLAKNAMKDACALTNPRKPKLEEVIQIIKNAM

B1: ACT: activator protein ACT, Nudix hydrolase from B. methanolicus MGA3 with ADPRase activity (protein)
chain: MGKLFEEKTIKTEQIFSGRVVKLQVDDVELPNGQTSKREIVRHPGAVAVIAITNENKIVMVEQYRKPLEKSIVEIPAGKLEKGEDPRVTALRELEEETGYECEQMEWLISFATSPGFADEIIHLYVAKGLSKKENAAGLDEDEFVDLIELTLDEALQYIKEKRIYDSKTVIAVQYLQLQEALK
modifications: left off: His tag (from the vector pET21a(+) and the Ni-affinity column), end not stated, state not stated
time to full activation of BmMDH2 (BmMDH2; 31.3 nM ACT): ≤ 2.8 min | ACT concentration that triggered immediate BmMDH2 activation (BmMDH2): > 62 nM | increase of BmMDH1 activity (BmMDH1): 40 fold | Specific activity (ADPRase) ([1]; pH 8.0, 400 μM ADPR, 5 mM MgCl2, 25 °C): 61.2 ± 0.5 U/mg | ADPRase activity ([1]; pH 9.5): 51.6 ± 0.4 U/mg
